Changes are numbered by the printed parent chain. Each block holds one molecule with its values, some of them ahead of it.
How the values were obtained:
[1] = molecular target: T1, recombinant human EGFR-His (human, UniProt P00533 25-645); experiment: SPR, single point mutant scFv constructs
T1 construct: also called epidermal growth factor receptor; ErbB-1; not shown: His tag (EGFR-His)

[2] = molecular target: T2, recombinant rhesus EGFR-His (rhesus macaque, UniProt P55245 25-645, limits assumed); experiment: SPR, single point mutant scFv constructs
T2 construct: also called Rhesus macaque EGFR; not shown: His tag (EGFR-His)

[3] = molecular target: T1, recombinant human EGFR-His; experiment: SPR, combination mutant scFv constructs
[4] = molecular target: T2, recombinant rhesus EGFR-His; experiment: SPR, combination mutant scFv constructs
[5] = molecular target: T1, recombinant human EGFR-His; experiment: SPR, Biacore 8K, 37 C, TriNKET captured on anti-hFc IgG chip, EGFR-His injected, N=4
Method: (§1) Kinetics and affinities of EGFR binding constructs for recombinant human and rhesus EGFR were measured by SPR using a Biacore 8K instrument. Samples were captured on the anti-hFc IgG chip and a range of concentrations of human or rhesus recombinant EGFR-His was injected over captured test articles. Experiments were performed at physiological temperature of 37° C. Data were analyzed using Biacore 8K Insight Evaluation software (GE Healthcare).

[6] = molecular target: T3, EGFR expressed on H2172 human cancer cells (human, UniProt P00533 25-1210); experiment: flow cytometry on EGFR-positive H2172 cells, 4 C for 0.5 h, fluorophore-conjugated anti-human IgG secondary antibody
T3 construct: whole, on cells; also called EGFR-positive H2172 cancer cells; EGFR+ cells
Method: This example was designed to assess the binding affinity of the EGFR-targeting TriNKETs to EGFR expressed on cell surface. The H2172 human cancer cell line, derived from non-small cell lung carcinoma, was used. […] Cells were analyzed by flow cytometry and fold MFI over secondary-only controls reported.

[7] = molecular target: T1, recombinant human EGFR-His; experiment: SPR, Biacore 8K, 37 C, TriNKET captured on anti-hFc IgG chip, EGFR-His injected, N=4; column head prints KD (nM) but the cells carry E-09
Method: as §1

Kd [1]: 3.27 nM
koff [1]: 0.000839 s⁻¹
kon [1]: 256000 M⁻¹ s⁻¹
Kd [2]: 5.09 nM
koff [2]: 0.00096 s⁻¹
kon [2]: 189000 M⁻¹ s⁻¹
Molecule: PANI-L-D92R (scFv)

Kd [3]: 3.38 nM
koff [3]: 0.00099 s⁻¹
kon [3]: 293000 M⁻¹ s⁻¹
Kd [4]: 5.36 nM
koff [4]: 0.00112 s⁻¹
kon [4]: 209000 M⁻¹ s⁻¹
B1: PANI-H_S62R-L_F87Y-L_D92R (scFv, V domains shown)
VH: QVQLQESGPGLVKPSETLSLTCTVSGGSVSSGDYYWTWIRQSPGKCLEWIGHIYYSGNTNYNPRLKSRLTISIDTSKTQFSLKLSSVTAADTAIYYCVRDRVTGAFDIWGQGTMVTVSS
VL: DIQMTQSPSSLSASVGDRVTITCQASQDISNYLNWYQQKPGKAPKLLIYDASNLETGVPSRFSGSGSGTDFTFTISSLQPEDIATYYCQHFRHLPLAFGCGTKVEIK
notes: also called EGFR-scFv-3

koff [5]: 0.000988 s⁻¹
kon [5]: 500000 M⁻¹ s⁻¹
EC50 (read off the curve) [6]: ~0.5 nM
Kd [7]: 1.98 nM
B2: EGFR-TriNKET-2 (bispecific antibody, human IgG1, kappa)
chain: DIQMTQSPSSLSASVGDRVTITCQASQDISNYLNWYQQKPGKAPKLLIYDASNLETGVPSRFSGSGSGTDFTFTISSLQPEDIATYYCQHFDHLPLAFGCGTKVEIKGGGGSGGGGSGGGGSGGGGSQVQLQESGPGLVKPSETLSLTCTVSGGSVSSGDYYWTWIRQSPGKCLEWIGHIYYSGNTNYNPRLKSRLTISIDTSKTQFSLKLSSVTAADTAIYYCVRDRVTGAFDIWGQGTMVTVSSGSDKTHTCPPCPAPELLGGPSVFLFPPKPKDTLMISRTPEVTCVVVDVSHEDPEVKFNWYVDGVEVHNAKTKPREEQYNSTYRVVSVLTVLHQDWLNGKEYKCKVSNKALPAPIEKTISKAKGQPREPRVYTLPPCRDELTKNQVSLTCLVKGFYPSDIAVEWESNGQPENNYKTTPPVLVSDGSFTLYSKLTVDKSRWQQGNVFSCSVMHEALHNHYTQKSLSLSPG
heavy: EVQLVESGGGLVKPGGSLRLSCAASGFTFSSYSMNWVRQAPGKGLEWVSSISSSSSYIYYADSVKGRFTISRDNAKNSLYLQMNSLRAEDTAVYYCARGAPIGAAAGWFDPWGQGTLVTVSSASTKGPSVFPLAPSSKSTSGGTAALGCLVKDYFPEPVTVSWNSGALTSGVHTFPAVLQSSGLYSLSSVVTVPSSSLGTQTYICNVNHKPSNTKVDKKVEPKSCDKTHTCPPCPAPELLGGPSVFLFPPKPKDTLMISRTPEVTCVVVDVSHEDPEVKFNWYVDGVEVHNAKTKPREEQYNSTYRVVSVLTVLHQDWLNGKEYKCKVSNKALPAPIEKTISKAKGQPREPQVCTLPPSRDELTENQVSLTCLVKGFYPSDIAVEWESNGQPENNYKTTPPVLDSDGSFFLYSWLTVDKSRWQQGNVFSCSVMHEALHNHYTQKSLSLSPG
light: DIQMTQSPSSVSASVGDRVTITCRASQGISSWLAWYQQKPGKAPKLLIYAASSLQSGVPSRFSGSGSGTDFTLTISSLQPEDFATYYCQQGVSFPRTFGGGTKVEIKRTVAAPSVFIFPPSDEQLKSGTASVVCLLNNFYPREAKVQWKVDNALQSGNSQESVTEQDSKDSTYSLSSTLTLSKADYEKHKVYACEVTHQGLSSPVTKSFNRGEC
notes: F3' format with three polypeptides: EGFR-scFv-2 (VL-VH)-Fc, A49MI-VH-CH1-Fc and A49MI-VL-CL; also called EGFR2

koff [5]: 0.000967 s⁻¹
kon [5]: 592000 M⁻¹ s⁻¹
EC50 (read off the curve) [6]: ~0.3 nM
B3: EGFR-TriNKET-1 (bispecific antibody)
scFv-Fc: B2 chain with Y87F, R191S
heavy: B2 heavy
light: B2 light
notes: also called EGFR1

koff [5]: 0.000745 s⁻¹
kon [5]: 316000 M⁻¹ s⁻¹
Kd [7]: 2.36 nM
B4: EGFR-TriNKET-4 (bispecific antibody, human IgG1, kappa)
chain: B2 chain with D92R, R191S
heavy: B2 heavy
light: B2 light
notes: F3' format with three polypeptides: EGFR-scFv-4 (VL-VH)-Fc, A49MI-VH-CH1-Fc and A49MI-VL-CL; also called EGFR4

koff [5]: 0.00093 s⁻¹
kon [5]: 295000 M⁻¹ s⁻¹
EC50 (read off the curve) [6]: ~0.9 nM
Kd [7]: 3.16 nM
B5: EGFR-TriNKET-3 (bispecific antibody, human IgG1, kappa)
chain: B2 chain with D92R
heavy: B2 heavy
light: B2 light
notes: F3' format with three polypeptides: EGFR-scFv-3 (VL-VH)-Fc, A49MI-VH-CH1-Fc and A49MI-VL-CL; also called EGFR3

From patent US20230257467A1 (DRAGONFLY THERAPEUTICS, published 2023)
